This is an account of results in article PMC8362221.

pKd: −log10 of the molar value.

This test addresses Idelvion (commercial albumin-fused factor IX) (human) (UniProt P02768). Description: SPR. (SPR reads the build-up and loss of mass on a sensor chip optically.)

Consider “soluble monomeric human neonatal Fc receptor, His-tagged (hFcRn‐His) (from UniProt P55899;P61769)”, for which the pKd is 6.82.

In general, pKd refers to −log10 of the Kd, conventionally taken in molar units.
